Tests used:
Assay type in all cases: physicochemical
[1] = Formation of hydrogel from nucleic acid units without ligase; details: for gel formation singly or on mixing: final DNA concentration 2 mM, NaCl 150 mM; for gel formation: without DNA ligase
Method: A NaCl solution was added to an ODN solution (polypodna) such that the final Na^+ concentration was 5 to 150 mM. The gel formation and the gel strength were measured by a gel strength analyzer (gel strength meter, Nakayamadenki Co., Ltd, Osaka).
A structure to be a hydrogel (a nucleic acid monomer and an estimated nucleic acid unit) in conditions at room temperature, at 5 mM to 150 mM sodium chloride concentration (150 mM is substantially physiological concentration), and not containing a DNA ligase was elucidated. […] For convenience, nucleic acid units estimated to be formed according to the number of nucleic acid monomers capable of constituting the nucleic acid unit were represented by xxxpodna (xxxpod-like structure forming nucleic acid, xxx is substituted by tri (3), tetra (4) and the like, according to the number of nucleic acid monomers capable of constituting the nucleic acid unit). In Table 2 described below, xxxpodna is an estimated nucleic acid unit, and each of xxx-Y-N is a nucleic acid monomer that can be a constituent element of the nucleic acid unit (xxxpodna) which is mentioned above thereof. When the descriptions of Ys are different from each other, different nucleic acid units can be formed. N denotes numbering of nucleic acid monomers constituting each of the estimated nucleic acid units.
Unlike (1-1) described above, gelation can be controlled by using a nucleic acid monomer including cohesive protruding ends which are not attached to themselves (that is, not palindrome sequence).

[2] = Percentage of remaining gels with the passage of time
Method: Gels were formed by adjusting the NaCl concentration at 150 mM in an aqueous solution containing Tetrapodna (12-14-14) (SEQ ID NOs.: 30, 31, 32 and 33) at a DNA concentration of 0.1 mM, 0.25 mM or 0.5 mM, and the percentage of the remaining gels was measured with the passage of time. The results are shown in a graph in the left upper side of FIG. 17.
Gels were formed in conditions at a certain DNA concentration (0.5 mM) and a certain NaCl concentration (150 mM), and the percentage of the remaining gels was measured with the passage of time by using Tetrapodna (respectively, SEQ ID NOs.: 2, 4, 5 and 6, SEQ ID NOs.: 18, 19, 20 and 21, SEQ ID NOs.: 22, 23, 24 and 25, SEQ ID NOs.: 26, 27, 28 and 29, as well as SEQ ID NOs.: 30, 31, 32 and 33) having various lengths of the cohesive protruding end (4, 6, 8, 10 or 12 bases). The results are shown in a graph in the left lower side of FIG. 17. […] When 12 hours had passed, the percentage of the remaining gels became about 50%.
Gels were formed by variously changing the NaCl concentrations (5 mM, 50 mM, 100 mM or 150 mM) of an aqueous solution containing Tetrapodna (12-14-14) (SEQ ID NOs.: 30, 31, 32 and 33) at a DNA concentration of 0.5 mM, and the percentage of the remaining gels was measured with the passage of time. The results are shown in a graph in the right upper side of FIG. 17. […] At a low salt concentration (5 mM), almost all the formed gels became in a sol state when about 6 hours had passed. When the salt concentration was increased to 50 mM, solation tendency was weakened, a change from a gel into a sol occurred moderately (about 40% when 12 hours had passed).
The percentage of the remaining gels was measured with the passage of time in the same manner as in (8-3) except that Tetrapodna (4-18-18) (SEQ ID NOs.: 2, 4, 5 and 6) was used instead of Tetrapodna (12-14-14) (SEQ ID NOs.: 30, 31, 32 and 33). The results are shown in a graph in the right lower side of FIG. 17. […] In (8-3), Tetrapodna (12-14-14) (the length of the cohesive protruding end is 12 bases) was used. In (8-4), Tetrapodna (4-18-18) (the length of the cohesive protruding end is 4 bases) was used.

[3] = Evaluation of gelation at various DNA concentrations and NaCl concentrations; set-up: key: ◯: the mark “∘” is given to cases in which gelation was observed; X: the mark “x” is given to cases of a solution state (sol-state)
Method: […] The gel formation and the gel strength were measured by a gel strength analyzer (gel strength meter, Nakayamadenki Co., Ltd, Osaka).
Specifically, by changing the DNA concentrations of an aqueous solution of Tripodona (4-18-18) (X=4) (SEQ ID NOs.: 1, 2 and 3), Tetrapodna (4-18-18) (X=4) (SEQ ID NOs.: 2, 4, 5 and 6), Hexapodna (4-18-18) (X=4) (SEQ ID NOs.: 2, 3, 4, 7, 9 and 10) and Tetrapodna (8-16-16) (X=8) (SEQ ID NOs.: 22, 23, 24 and 25) as shown in the lines of Table 4, and by changing the NaCl concentration as shown in the rows of Table 4, whether or not a gel is formed at various DNA concentrations and NaCl concentrations was evaluated. The results are shown such that the mark “∘” is given to cases in which gelation was observed, and the mark “x” is given to cases of a solution state (sol-state).

## dsDNA (12-14): double strand DNA, SEQ ID NOs.: 42 and 43, 12-base ends complementary to Tetrapodna (A) (chain 1 GACTGACTCTGAACGTCAGCGTTA; chain 2 GACTGACTCTGATAACGCTGACGT; DNA, all phosphodiester, methylation of C not given here)
[1]
  gel formation singly or on mixing: did not form a gel singly

B1: Tetrapodna (6-17-17): four ODNs, SEQ ID NOs.: 18, 19, 20 and 21, 6-base cohesive protruding end (nucleic acid)
DNA 1: AACGTTTACGCACGACATCAGCGTCTGGACGCTTCGTCGA
DNA 2: AACGTTTCGACGAAGCGTCCAGATCTCGTCAACGCTGCGA
DNA 3: AACGTTTCGCAGCGTTGACGAGACAGACGCTGTGACGCTA
DNA 4: AACGTTTAGCGTCACAGCGTCTGCGCTGATGTCGTGCGTA
modifications: unmodified DNA
[2]; DNA 0.5 mM, NaCl 150 mM
  initial percentage of gels: about 100%
  percentage of the remaining gels with the passage of time: decreased with the passage of time only slightly
[1]
  gel formation: gels can be prepared

B2: Tetrapodna (A): SEQ ID NOs.: 34, 35, 36 and 37, 12-base non-palindrome cohesive protruding end (nucleic acid)
DNA 1: TCAGAGTCAGTCTGCACGACATCACGTTGACGCTCGTCGA
DNA 2: TCAGAGTCAGTCTCGACGAGCGTCAATCTCGCAACGTGCA
DNA 3: TCAGAGTCAGTCTGCACGTTGCGAGACAGACGCTTGACGA
DNA 4: TCAGAGTCAGTCTCGTCAAGCGTCTGCGTGATGTCGTGCA
modifications: DNA, all phosphodiester, methylation of C not given here
[1]
  gel formation singly or on mixing: did not form a gel singly

B3: Tetrapodna (10-15-15): four ODNs, SEQ ID NOs.: 26, 27, 28 and 29, 10-base cohesive protruding end (nucleic acid)
DNA 1: ACGTTAACGTTGCACGACATCAGCGTCTGACGCTCGTCGA
DNA 2: ACGTTAACGTTCGACGAGCGTCAGATCTCGCAACGCTGCA
DNA 3: ACGTTAACGTTGCAGCGTTGCGAGACAGACGCTTGACGCA
DNA 4: ACGTTAACGTTGCGTCAAGCGTCTGCGCTGATGTCGTGCA
modifications: DNA, all phosphodiester, methylation of C not given here
[2]; DNA 0.5 mM, NaCl 150 mM
  initial percentage of gels: about 100%
  percentage of the remaining gels with the passage of time: decreased with the passage of time only slightly
[1]
  gel formation: gels can be prepared

B4: Tripodna(4-18-18): nucleic acid unit of three ODNs, SEQ ID NOs.: 1, 2 and 3, 4-base palindrome cohesive protruding end, CpG (nucleic acid)
DNA 1: ACGTTCGTCAACGTCTGTGCTCTCACGTTGACGCTGTCGA
DNA 2: ACGTTCGACAGCGTCAACGTGAAACGTGAAGCGTCTGCGA
DNA 3: ACGTTCGCAGACGCTTCACGTTGAGCACAGACGTTGACGA
modifications: unmodified DNA
[1]
  gel formation: gels can be prepared
[3]; Na+ 2 mM, DNA 1.2 mM
  gelation: X
[3]; Na+ 2 mM, DNA 1.4 mM
  gelation: ◯
[3]; Na+ 10 mM, DNA 1.2 mM
  gelation: ◯
[3]; Na+ 20 mM, DNA 1.0 mM
  gelation: X
[3]; Na+ 50 mM, DNA 0.7 mM
  gelation: X
[3]; Na+ 50 mM, DNA 0.8 mM
  gelation: X
[3]; Na+ 50 mM, DNA 0.9 mM
  gelation: X
[3]; Na+ 50 mM, DNA 1.0 mM
  gelation: ◯
[3]; Na+ 100 mM, DNA 0.7 mM
  gelation: ◯
[3]; Na+ 100 mM, DNA 0.8 mM
  gelation: ◯
[3]; Na+ 100 mM, DNA 0.9 mM
  gelation: ◯
[3]; Na+ 150 mM, DNA 0.6 mM
  gelation: X

B5: Pentapodna (4-18-18): five ODNs, SEQ ID NOs.: 2, 3, 4, 7 and 8, 4-base cohesive protruding end (nucleic acid)
DNA 1: B4 DNA 2
DNA 2: B4 DNA 3
DNA 3: ACGTTCGCTGACGTTGCAGACATCACGTTGACGCTGTCGA
DNA 4: ACGTTCGTCAACGTCTGTGCTCGCAGCGTCTTAACGTCGA
DNA 5: ACGTTCGACGTTAAGACGCTGCTGTCTGCAACGTCAGCGA
modifications: unmodified DNA
[1]
  gel formation: gels can be prepared

B6: Tetrapodna (12-14-14): four ODNs, SEQ ID NOs.: 30, 31, 32 and 33, 12-base palindrome cohesive protruding end (nucleic acid)
DNA 1: ACGTCATGACGTTGCACGACATCACGTTGACGCTCGTCGA
DNA 2: ACGTCATGACGTTCGACGAGCGTCAATCTCGCAACGTGCA
DNA 3: ACGTCATGACGTTGCACGTTGCGAGACAGACGCTTGACGA
DNA 4: ACGTCATGACGTTCGTCAAGCGTCTGCGTGATGTCGTGCA
modifications: DNA, all phosphodiester, methylation of C not given here
[2]; DNA 0.1 mM, NaCl 150 mM
  gel formation (percentage of gels): about 25%
[2]; DNA 0.25 mM, NaCl 150 mM
  percentage of the remaining gels with the passage of time: the initial percentage of gels was increased, but the percentage of the remaining gels was decreased with the passage of time
[2]; DNA 0.5 mM, NaCl 5 mM
  time until almost all the formed gels became in a sol state: about 6 hours
[2]; DNA 0.5 mM, NaCl 50 mM, 12 hours
  change from a gel into a sol: about 40%
[2]; DNA 0.5 mM, NaCl 100 mM
  initial percentage of gels: about 100%
  percentage of the remaining gels with the passage of time: decreased with the passage of time only slightly
[2]; DNA 0.5 mM, NaCl 150 mM
  initial percentage of gels: about 100%
  percentage of the remaining gels with the passage of time: decreased with the passage of time only slightly
[1]
  gel formation: gels can be prepared

B7: Tetrapodna (B): SEQ ID NOs.: 38, 39, 40 and 41, 12-base end complementary to Tetrapodna (A) (nucleic acid)
DNA 1: GACTGACTCTGATGCACGACATCACGTTGACGCTCGTCGA
DNA 2: GACTGACTCTGATCGACGAGCGTCAATCTCGCAACGTGCA
DNA 3: GACTGACTCTGATGCACGTTGCGAGACAGACGCTTGACGA
DNA 4: GACTGACTCTGATCGTCAAGCGTCTGCGTGATGTCGTGCA
modifications: DNA, all phosphodiester, methylation of C not given here
[1]
  gel formation singly or on mixing: did not form a gel singly
